According to patent USRE46585 (LABORATOIRE FRANCAIS DU FRACTIONNEMENT ET DES …, dated 2017):

Tests used:
[1] = molecular target: T1, FcRn-p3 fusion protein (human, UniProt P55899 24-297; P61769 21-119); experiment: phage ELISA pH6
T1 construct: baculovirus expressed; coated on ELISA wells; not shown: amino terminal part of bacteriophage p3 protein and CVDE protein

[2] = molecular target: T1, FcRn-p3 fusion protein; experiment: phage ELISA pH6 (est.)

T1 sequence (P55899 24-297, chain 1 of 2): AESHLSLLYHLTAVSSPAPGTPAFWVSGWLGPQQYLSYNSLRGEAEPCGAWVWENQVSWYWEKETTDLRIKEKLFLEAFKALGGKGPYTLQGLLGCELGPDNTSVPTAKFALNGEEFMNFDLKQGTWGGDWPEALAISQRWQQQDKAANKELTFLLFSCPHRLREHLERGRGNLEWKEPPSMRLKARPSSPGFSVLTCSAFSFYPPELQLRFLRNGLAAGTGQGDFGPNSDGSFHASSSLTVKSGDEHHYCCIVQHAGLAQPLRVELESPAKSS
T1 sequence (P61769 21-119, chain 2 of 2): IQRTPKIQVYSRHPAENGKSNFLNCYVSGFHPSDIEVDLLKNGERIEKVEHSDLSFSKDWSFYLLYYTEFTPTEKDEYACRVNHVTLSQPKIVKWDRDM

| Binder | Ratio/Fc-H [1] [fold] | Ratio/FWT [2] [fold] |
| --- | --- | --- |
| T5A_03 (other, EU numbering) CPPCPAPELLGGPSVFLFPPKPKDTLMISRTPEVTCVVEDVSHEDPEVKFNWYVDGVEVHNAKTKPREEQYNSTYRVVSVLTVLHQDWLNGKEYKCKVSNKALPAPIEKTISKAKGQPREPQVYTLPPSRDELTKNQVSLTCLVKGFYPSDIAVEWESNGQPENNYKTTPLVLDSDGSFFLYSKLTVDKSRWQQGNVFSCSVMHEALHSHYTQKSLSLSPGK | 2 | 6.4 |
| T5A_28 (other, EU numbering) CPPCPAPELLGGPSVLLFPPKPKDTLMISRTPEVTCVVEDVSHEDPEVKFNWYVDGVEVHNAKTKPREEQYNSTYRVVSVLTVLHQDWLNGKEYKCKVSNKALPAPIEKTISKAKGQPREPQVYTLPPSRDELTKNQVSLTCLVKGFYPSDIVVEWESNGQPENNYKTTPPVLDSDGSFFLYSKLTVDKSRWQQGNVFSCSVMHEALHYHYTQKSLSLSPGK | 2.5 | 7.9 |
| T5A_44 (other, EU numbering) CPPCPAPELLGGPSVLLFPPKPKDTLMISRTPEVTCVVEDVSHEDPEVKFNWYVDGVEVHNAKTKPREEQYNSTYRVVSVLPVLHQDWLNGKEYKCKVSNKALPAPIEKTISKAKGQPREPQVYTLPPSRDELTKNQVSLTCLVKGFYPSDITVEWESNGQPENNYKTTPPMLDSDGSFFLYSKLTVDKSRWQQGNVFSCSVMHEALHNHYTQKSLSLSPGK | 1.2 | 3.8 |
| T5A_37 (other, EU numbering) CPPCPAPELLGGPSVFLFPPKPKDTLMISRTPEVTCVVVDVSHEDPEVKFNWYVDGVEVHNAKTKPREEQYNGTYRVVSVLTVLHQDWLDGKEYKCKVSNKALPVPIEKTISKAKGQPREPQVYTLPPSRDELTKNQVSLTCLVKGFYPSDIAVEWESNGQPENNYKTTPPVLDSDGSFFLYSKLTVDKSRWQQGNVFSCSVMHEALHYHYTQKSLSLSPGK | 2.2 | 7 |
| T5A_51 (other, EU numbering) CPPCPAPELLGGPSVFLFPPKPKDTLMISRTPEVTCVVEDVSHEDPEVKFNWYVDGVEVHNAKTKPREEQYNSTYRVVSVLTVLHQDWLNGKEYKCKVSNKALPAPIEKTISKAKGQPREPQVYTLPPSRDELTKNQVSLTCLVKGFYPSDIVVEWESNGQPENNYKTTPPVLDSDGSLFLYSKLTVDKSRWQQGNVFSCSVMHEALHSHYTQKSLSLSPGK | 2.8 | 9 |
| T5A_05 (other, EU numbering) CPPCPAPELLGGPSVFLFPPKPKDTLMISRTPEVTCVVEDVSHGDPEVKFNWYVDGVEVHNAKTKPREEQYNSTYRVVSVLTVLHQDWLNGKEYKCKVSNKALPAPIEKTISKAKGQPREPQVYTLPPSRDELTKNQVSLTCLVKGFYPSDIVVEWESNGQPENNYKTTPPVLDSDGSFFLYSKLTVDKSRWQQGTVFSCSVMHEALHSHYTQKSLSLSPGK | 2.7 | 8.8 |
| T5A_40 (other, EU numbering) CPPCTAPELLGGPSVFLFPPKPKDTLMISRTPEVTCVVEDVSHEDPEVKFNWYVDGVEVHNAKTKPREEQYNSTYRVVSVLPVLHQDWLNGKEYKCKVSNKALPAPIEKTISKAKGQPREPQVYTLPPSRDELTKNQVSLTCLVKGFYPSDIVVEWESNGQPENNYKTTPPVLDSDGSFFLYSKLTVDKSRWQQGTVFSCSVMHEALHNHYTQKSLSLSPGK | 3.4 | 10.8 |
| T5A_29 (other, EU numbering) CPPCPAPELLGGPSVFLFPPKPKDTLMISRTPEVTCVVVDVSHEDPEVKFNWYVDGVEVHNAKTKPREEQYNSTYRVVSVLTVLHQDWLDGKEYKCKVSNKALPAPIEKTISKAKGQPREPQVYTLPPSRDELTKNQVSLTCLVKGFYPSDIAVEWVSNGQPENNYKTTPPVLDSDGSFFLYSKLTVDKSRWQQGNVFSCSVMHEALHYHYTQKSLSLSPGK | 1.9 | 6 |
